Experiments:
[1] = Storage stability at 50° C. under argon; type: physicochemical
Experimental: (§1) The inventive compounds were evaluated for stability. All compounds were packed under argon in plastic vials. The vials sere sealed with a drying pad in an aluminium coated pouch, and then stored at 50° C. for seven days. The results of the stability study for selected compounds are shown below:
Purity was determined based on ester activity.
as §1, with “stability compared to commercial dyes.” for “stability.”, “argon as 1 mg portions” for “argon”, “14” for “seven”
The inventive compound 755 Compound 1 (isomer 1)-NHS was evaluated for stability. The compound was packed under argon in plastic vials. The vials sere sealed with a drying pad in an aluminium coated pouch, and then stored at 50° C. for 14 days. Purity was determined by HPLC before and after storage.

streptavidin (SA) = streptavidin (SA) (Streptomyces avidinii, UniProt P22629); assay: Labeling efficiency (degree of labeling, mole dye to mole protein ratio) of streptavidin; conditions: for Compound/Protein SA in PBS purified by PDRR / Compound/Protein SA in PBS purified by gel filtration: PBS pH 7.2; for Compound/Protein SA in PBS purified by PDRR / Compound/Protein SA in PBS purified by gel filtration / Compound/Protein SA in borate purified by gel PDRR / Compound/Protein SA in borate purified by gel filtration: molar excess given in the label; for Compound/Protein SA in borate purified by gel PDRR / Compound/Protein SA in borate purified by gel filtration: borate buffer pH 8.5
Experimental: Inventive and commercial compounds, each as the NHS ester, were conjugated to goat anti-mouse (GAM), goat anti-rabbit (GAR) antibodies, and streptavidin (SA). GAM, GAR, and SA, at 10 mg/ml in phosphate buffered saline (PBS), were dialyzed against 50 mM borate buffer, pH 8.5. The compounds were reconstituted in dimethylformamide (DMF) at 10 mg/ml and combined at 2×, 4×, 5×, 7.5×, or 10× molar excess with GAM, GAR, or SA for 2 h at room temperature to label the antibodies or SA.
The labeled compounds, also termed dyes or labels, were subjected to PDDR to remove the unlabeled (free) compound; 100 μl of the packed resin was used per mg of protein purified. The purified antibody-labeled dyes were then diluted 1:50 in PBS and scanned for absorbance from 700 nm to 230 nm to determine the protein concentration, and to determine the mole dye to mole protein ratio. Each conjugate was diluted 1:10 in 50% glycerol and heated in the presence of 10 mM dithiothreitol (DTT) for 5 min at 95° C., then separated by electrophoresis on polyacrylamide gels in the presence of sodium dodecyl sulfate (SDS-PAGE). The gels were scanned using the Typhoon 9400 Imager to verify removal of the unconjugated compound. Labeling efficiency was compared, with results showing degree of labeling below.
Compounds 1, 2, and 3, each as the NHS ester, and DyLight 649-NHS were conjugated to goat anti-mouse (GAM) and goat anti-rabbit (GAR) antibodies. GAM and GAR, at a concentration of 10 mg/ml in phosphate buffered saline (PBS), were dialyzed against 50 mM borate buffer, pH 8.5. The compounds were reconstituted in dimethylformamide (DMF) at 10 mg/ml. To label the antibodies, the compounds were added at 2.5× molar excess and 5× molar excess for 2 h at room temperature. Streptavidin (SA) was reconstituted in PBS buffer, pH 7.2, and 50 mM borate buffer, pH 8.5, and labeled with 2.5× molar excess and 4× molar excess of the compound.
The antibody-labeled compounds, also termed dyes or labels, were subjected to gel filtration chromatography (15 cm×0.8 cm columns) or to the PDDR to remove the unlabeled (free) compound; 100 μl of the packed resin was used per mg of protein purified. The purified antibody-labeled dyes were then diluted 1:100 in PBS and scanned for absorbance from 700 nm to 230 nm to determine the protein concentration, and to determine the mole dye to mole protein ratio. Each conjugate was diluted 1:10 in 50% glycerol and heated in the presence of 10 mM dithiothreitol (DTT) for 5 min at 95° C., then separated by electrophoresis on polyacrylamide gels in the presence of sodium dodecyl sulfate (SDS-PAGE). The gels were scanned using the Typhoon 9400 Imager to verify removal of the unconjugated compound. Labeling efficiency was compared using labeling of the compounds to GAM antibody at a 2.5× molar excess of compound, with results shown below.
Labeling efficiency was also compared using labeling of the dyes to streptavidin (SA) at either a 2.5 fold or a 4 fold molar excess of the dye, with SA in PBS, pH 7.2, and borate buffer, pH 8.5.
650 Compound 1 (isomer 2)-TFP, 650 Compound 1 (isomer 1)-TFP, 650 Compound 1 (isomer 2)-TFP, 650 Compound 1-NHS, and DyLight 649-NHS were conjugated to GAM, GAR, and SA. GAM and GAR, at a concentration of 10 mg/ml in phosphate buffered saline (PBS), were dialyzed against 50 mM borate buffer, pH 8.5. The compounds were reconstituted in dimethylformamide (DMF) at 10 mg/ml and used to label antibodies at 5× molar excess of compound for two hours at room temperature to label the antibodies. SA was reconstituted in 50 mM borate buffer, pH 8.5, and combined with 4× molar excess to label the SA.
The antibody-conjugated and SA-conjugated compounds, also termed dyes or labels, were subjected to the PDDR to remove the unlabeled (free) compound. The purified antibodies and SA were then diluted 1:25 in PBS and scanned for absorbance from 700 nm to 230 nm to determine the protein concentration, and to determine the mole dye to mole protein ratio. […]

U2OS cells; A550 cells = assay: Immunofluorescence cell based assays, summary statements; parameters: species or system human; conditions: GAM and GAR conjugates
Experimental: The inventive compounds and commercial dye were evaluated for immunofluorescence in cell based assays using the following protocol. Plates containing U2OS cells (human osteosarcoma cell line) were fixed in 4% paraformaldehyde in PBS/0.1% Triton X-100 for 15 min at room temperature. The cells were then permeabilized with 2% BSA in PBS/0.1% Triton X-100 for 30 min at room temperature. Diluted primary antibodies in PBS/0.1% Triton X-100 were added to the plates and incubated overnight at 4° C. The plates were washed 3×100 μl with PBS. Based on the calculated protein concentrations, the conjugates were diluted to 4 μg/ml (1:250 from 1 mg/ml stock) in PBS/0.1% Triton X-100 and added to the plates (50 μl/well) and incubated 1 h in the dark at room temperature. The plates were washed 3×100 μl with PBS. One hundred μl of 2 μg/ml Hoechst dye in PBS was added per well. The plates were then scanned on an ArrayScan® Plate Reader for imaging and quantitation.
The inventive compounds and commercial dyes were evaluated for immunofluorescence in cell based assays using the following protocol. Plates containing A550 cells (adenocarcinoma human alveolar basal epithelial cells, P5, Sep. 23, 2010) and stored at −80° C. were placed at 50° C. for 30 min. The storage buffer (PBS) was removed and then the cells were permeabilized for 15 min (100 μl/well) with 0.1% Triton-X100 in 1×PBS buffer. The plates were blocked for 30 min in 2% BSA in 1×PBS-0.1% Triton-X100 and then incubated with primary antibodies diluted in 2% BSA in 1×PBS, 0.1% Trion-X100, overnight at 4° C. […] The remaining wells were incubated in blocking buffer only (no primary antibody). After overnight incubation, the antibody solution was removed from the wells, and the plates were washed with PBS-Tween (2×100 μl/well). The labeled secondary antibody conjugates, diluted to 4 μg/ml in PBS were added to corresponding wells and incubated for 1 h at room temperature (about 20° C. to about 22° C.). The plates were washed 3×100 μl/well with PBS and Hoechst stain diluted 1 μg/ml in PBS were added to each well (100 μl/well) of each plate. The plates were then scanned on the Thermo Scientific ArrayScan® HCS Reader for imaging and quantitation.

[2] = Spectral properties of the dyes compared with commercially available dyes; type: physicochemical; conditions: reactive ester form of the dye
[3] = unit size 1 mg, 50° C. for seven days, purity based on ester activity
[4] = amount 1 mg, 50° C. for 14 days (650 series)

streptavidin (SA), sequence (P22629 25-183, species assumed): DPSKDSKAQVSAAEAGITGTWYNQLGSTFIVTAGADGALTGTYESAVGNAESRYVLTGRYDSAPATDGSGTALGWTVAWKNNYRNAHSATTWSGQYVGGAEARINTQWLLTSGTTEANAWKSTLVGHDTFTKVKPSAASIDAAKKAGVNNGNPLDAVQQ

Row | Compound | Purity at day 1 [1, 3] [%] | Purity at day 7 [1, 3] [%] | Compound/Protein SA in PBS purified by PDRR (streptavidin (SA)) | Compound/Protein SA in PBS purified by gel filtration (streptavidin (SA)) | Compound/Protein SA in borate purified by gel PDRR (streptavidin (SA)) | Compound/Protein SA in borate purified by gel filtration (streptavidin (SA)) | further results
1 | COCCN1/C(=C/C=C/C2=[N+](CCCCCC(=O)Oc3c(F)c(F)cc(F)c3F)c3ccc(S(=O)(=O)[O-])cc3C2(C)CCCS(=O)(=O)O)C(C)(CCCS(=O)(=O)O)c2cc(S(=O)(=O)O)ccc21 (single isomer, unassigned) [550 Compound 1 (isomer 1)-TFP] | 97 | 96 | – | – | – | – | –
2 | COCCN1/C(=C/C=C/C2=[N+](CCCCCC(=O)NCCN3C(=O)C=CC3=O)c3ccc(S(=O)(=O)[O-])cc3C2(C)CCCS(=O)(=O)O)C(C)(CCCS(=O)(=O)O)c2cc(S(=O)(=O)O)ccc21 (single isomer, unassigned) [550 Compound 1(isomer 1)-maleimide] | 99 | 97 | – | – | – | – | –
3 | COCCN1/C(=C/C=C/C2=[N+](CCCCCC(=O)NCCN3C(=O)C=CC3=O)c3ccc(S(=O)(=O)[O-])cc3C2(C)CCCS(=O)(=O)O)C(C)(CCCS(=O)(=O)O)c2cc(S(=O)(=O)O)ccc21 (single isomer, unassigned) [550 Compound 1(isomer 2)-maleimide] | 98 | 97 | – | – | – | – | –
4 | COCCN1/C(=C/C=C/C=C/C2=[N+](CCCCCC(=O)Oc3c(F)c(F)cc(F)c3F)c3ccc(S(=O)(=O)[O-])cc3C2(C)CCCS(=O)(=O)O)C(C)(CCCS(=O)(=O)O)c2cc(S(=O)(=O)O)ccc21 (single isomer, unassigned) [650 Compound 1 (isomer 2)-TFP] | – | – | – | – | – | – | SA (4X) Average (mole dye to mole protein ratio) (streptavidin (SA); TFP or NHS ester, 4X molar excess, borate buffer pH 8.5, PDRR): 2.42
5 | COCCN1/C(=C/C=C/C2=[N+](CCCCCC(=O)O)c3ccc(S(=O)(=O)[O-])cc3C2(C)CCCS(=O)(=O)O)C(C)(CCCS(=O)(=O)O)c2cc(S(=O)(=O)O)ccc21 (stereo not shown) [550 Compound 1, 2-{(E)-3-[1-(5-carboxypentyl)-3-methyl-5-sulfo-3-(3-sulfopropyl)-1,3-dihydro-indol-(2E)-ylidene]-propenyl}-1-(2-methoxy-ethyl)-3-methyl-5-sulfo-3-(3-sulfo-propyl)-3H-indolium] | – | – | – | – | – | – | Immunofluorescence performance of conjugates compared with commercial DyLight dye (U2OS cells; A550 cells): at least similar performance to DyLight 549 conjugates (GAM, GAR), and in some cases superior performance
6 | COCCN1/C(=C/C=C/C=C/C2=[N+](CCCCCC(=O)Oc3c(F)c(F)cc(F)c3F)c3ccc(S(=O)(=O)[O-])cc3C2(C)CCCS(=O)(=O)O)C(C)(CCCS(=O)(=O)O)c2cc(S(=O)(=O)O)ccc21 (stereo not shown) [650 Compound 1-TFP] | – | – | – | – | – | – | Emission (Em) [2]: 672 nm; Excitation (Ex) [2]: 654 nm; ε [2]: 250,000 M−1cm−1; Purity at day 1 [1, 4]: 98%; Purity at day 14 [1, 4]: 97%
7 | Alexa 647-SA-(2.5X): Alexa 647 conjugated to streptavidin (SA) [reference compound] | – | – | 3.5 | 3.9 | 2.4 | 2.6 | Compound/Protein SA in borate purified by gel PDRR (streptavidin (SA); listed as Alexa647-SA-4X): 3.4; Compound/Protein SA in borate purified by gel filtration (streptavidin (SA); listed as Alexa647-SA-4X): 3.9
8 | Cy5-SA (2.5X): Cy5 conjugated to streptavidin (SA) [reference compound] | – | – | 3.8 | 4.2 | 2.0 | 2.3 | Compound/Protein SA in borate purified by gel PDRR (streptavidin (SA); listed as Cy5-SA-4X): 3.3; Compound/Protein SA in borate purified by gel filtration (streptavidin (SA); listed as Cy5-SA-4X): 3.8
9 | DyLight 649-SA (2.5X): DyLight 649 conjugated to streptavidin (SA); suffix gives molar excess of dye [reference compound] | – | – | 2.6 | 3.5 | 2.2 | 2.3 | Compound/Protein SA in borate purified by gel PDRR (streptavidin (SA); listed as DyLight 649-SA-4X): 2.9; Compound/Protein SA in borate purified by gel filtration (streptavidin (SA); listed as DyLight 649-SA-4X): 3.5

Source: US10053447B2, “Fluorescent compounds” (Pierce Biotechnology, Inc, priority 2010, dated 2018)
